Test results published in patent EP1052288A1, “Complex for transferring an anionic substance of interest into a cell” (TRANSGENE S.A., priority 1999, dated 2000).
Ends that are not written are not given here.

Tests used:
[1] = Sizes of complexes by quasi-elastic light scattering; format: physicochemical; details: complexes (-/+) [1:4], 6 µg DNA (pTG11033), 500 µl; for Sizes in ultrafiltrated serum: ultrafiltrated foetal calf serum
Experimental: Sizes of complexes prepared with a plasmid DNA (PTG11033; see EP-A 890 32, 9.6 kb) and the C1qA (4-26) peptide (see Table I) were evaluated. Complexes were formulated either in 5% glucose or in ultrafiltrated foetal calf serum (YM10 Amicon membrane). Formulation was made in 500 µl buffer, with 6 µg DNA and the quantity of peptide necessary to form a [1:4], [-:+] complex. As a control a polylysine SV40 NLS peptide was used. […] When oxidized, the dimerized C1qA peptide could form even smaller complexes, whatever the formulation buffer used. The reasonable sizes obtained in ultrafiltrated serum with C1qA peptides is an advantage for the use of this peptide rather than polylysine derivatives.
Complexes (-/+):[1:4], 6 µg DNA, 500 µl.
Size measures: quasi-elastic light scattering, COULTER N4+. [formula] [formula] [formula] [formula]

plasmid pTG11033 = assay: Gel retardation assay (agarose gel electrophoresis); format: binding
Experimental: Gel retardation assay was performed with C1qA (4-26) in several buffers: PBS, TBS, 5% glucose, or ultrafiltrated serum (YM10 Amicon membrane). DNA and peptides have been mixed at charge ratios [-/+] of [1:4], [1:1] and [1:0.2].

Substance | Sizes in 5% glucose [1] | Sizes in ultrafiltrated serum [1] | retardation in DNA (plasmid pTG11033; charge ratio [-/+] [1:1]) | association of DNA to the peptides (plasmid pTG11033; charge ratio [-/+] [1:4], PBS, TBS, 5% glucose or ultrafiltrated serum, absence of visible band with ethidium bromide)
SP-1052 oxidized: When oxidized, the dimerized C1qA peptide (CRAPDGKKGEAGRPGRRGRPGLK; also: oxidized disulfide dimer; UniProt P02745 26-48, looked up, fragment) | 200 nm | 300 nm | – | –
SP-1052: C1qA (4-26) peptide, complexed with plasmid DNA (CRAPDGKKGEAGRPGRRGRPGLK; also: complexed with plasmid DNA; UniProt P02745 26-48, looked up, fragment) | 1µm | 300-500 nm | significative retardation | strong association of DNA to the peptides
